Like-named read-outs stand apart in the source and are kept apart here.
Key:
[1] = test system: BBB; conditions: ref Ito et al., 2006; cited from earlier work
[2] = test system: brain of C57BL/6 mice; assay: Brain clearance index; assay type: in vivo, mouse
[3] = Integrity of 125I-Aβ40 in media without cells; assay type: physicochemical; conditions: 0.1 nM 125I-Aβ40 in media without cells
[4] = test system: bEnd3 cells
[5] = test system: hCMEC/D3 cells
[6] = test system: bEnd3 cells; remark: listed apart in the source
[7] = test system: hCMEC/D3 cells; remark: listed apart in the source
[8] = test system: bEnd3 cells; remark: listed apart in the source
[9] = test system: bEnd3 cells; assay: Aβ40 degradation in bEnd3 cells with IDE or neprilysin inhibitor; assay type: cell-based, mouse; conditions: bEnd3, thiorphan 2 mM
[10] = test system: hCMEC/D3 cells; assay: Aβ40 degradation in hCMEC/D3 cells with IDE or neprilysin inhibitor; assay type: cell-based, human; conditions: hCMEC/D3, thiorphan 2 mM
[11] = test system: human brain; conditions: ref Mawuenyega et al., 2010, cited from earlier work
[12] = test system: mouse brain; conditions: ref Barten et al., 2005, Cirrito et al., 2003, cited from earlier work
[13] = test system: brain; conditions: ref Shibata et al., 2000; cited from earlier work

Aβ42: amyloid-β peptide Aβ42, prone to rapid aggregation
clearance across the BBB compared to Aβ40 [1]: slower

125I-Aβ40: radioiodinated amyloid-β 40 peptide tracer (PerkinElmer)
BCITotal(%), total brain clearance (BBB efflux + degradation) ([2]; mouse): 58.7±3.9%
BCIBBB(%), clearance across BBB ([2]; mouse, in vivo): 35.6±3.3%
BCIDegradation(%), clearance by brain degradation ([2]; mouse, in vivo): 23.1±2.3%
clearance across BBB as share of BCITotal(%) ([2]; mouse, in vivo): 62%
dimer or higher oligomer formation ([3]; 12 h, 16% bis-tris gel electrophoresis): absence of dimers or higher oligomer formation
dissociation of 125I from Aβ40 ([3]; investigated time points): insignificant dissociation
effect of RAGE inhibition on 125I-Aβ40 degradation ([4]; bEnd3, RAGE-IgG 5 µg/ml, 0.1 nM, 15 min, P>0.05): not altered
effect of RAGE inhibition on 125I-Aβ40 degradation ([5]; hCMEC/D3, RAGE-IgG 5 µg/ml, 0.1 nM, 12 h, P>0.05): not altered
effect of inhibition of RAGE, P-gp, or LRP1 on degradation during transport ([6]; bEnd3, either direction, RAGE-IgG 5 µg/ml, valspodar 5 µM or RAP 1 µM, 30 min): did not affect
effect of inhibition of P-gp on A→B transport ([6]; bEnd3, valspodar 5 µM pre- and co-incubated, 0.1 nM, 30 min): no alteration
effect of inhibition of RAGE, P-gp, or LRP1 on degradation during transport ([7]; hCMEC/D3, either direction, RAGE-IgG 5 µg/ml, valspodar 5 µM or RAP 1 µM, 12 h): did not affect
Intrinsic uptake (Vmax/Km) [8]: 2848 nL/min

O=C(O)CNC(=O)C(CS)Cc1ccccc1 (centres unmarked) [thiorphan]
effect of neprilysin inhibition on Aβ40 degradation [9]: did not show any significant effect
effect of neprilysin inhibition on Aβ40 degradation [10]: did not show any significant effect

Aβ40: amyloid-β peptide Aβ40, by-product of proteolytic degradation of amyloid precursor protein
effect of P-gp inhibition on brain degradation ([2]; valspodar 40 µM intracerebral, 30 min, NS in Figure 1C): without altering
Aβ40 cleared from the brain per hour ([11]; cognitively normal individuals): about 7%
corresponding half-life of Aβ40 in brain ([11]; cognitively normal individuals): ~ 10 h
Aβ40 cleared from the brain per hour ([11]; patients with AD): 5.2%
corresponding half-life of Aβ40 in brain ([11]; patients with AD): ~ 13 h
half-life of human Aβ40 in mouse brain ([12]; PDAPP mice): 2 h
half-life of human Aβ40 in mouse brain ([12]; Tg2576 mice): 0.63 h
contribution of CSF flow to overall brain Aβ40 clearance [13]: 10–15%

valspodar
change in 125I-Aβ40 accumulation (P-gp inhibition) ([4]; bEnd3, valspodar 5 µM pre- and co-incubated, 0.1 nM 125I-Aβ40, 15 min, P>0.05): did not cause any significant change
effect of P-gp inhibition on 125I-Aβ40 degradation ([4]; bEnd3, valspodar 5 µM, 0.1 nM 125I-Aβ40, 15 min, P>0.05): no effect
effect of P-gp inhibition on 125I-Aβ40 degradation ([5]; hCMEC/D3, valspodar 5 µM, 0.1 nM 125I-Aβ40, 12 h, P>0.05): no effect

B1: RAP: an LRP1 inhibitor (receptor-associated protein; Oxford Biomedical Research) (protein, UniProt P30533 35-357, looked up)
Alpha-2-macroglobulin …: YSREKNQPKPSPKRESGEEFRMEKLNQLWEKAQRLHLPPVRLAELHADLKIQERDELAWKKLKLDGLDEDGEKEARLIRNLNVILAKYGLDGKKDARQVTSNSLSGTQEDGLDDPRLEKLWHKAKTSGKFSGEELDKLWREFLHHKEKVHEYNVLLETLSRTEEIHENVISPSDLSDIKGSVLHSRHTELKEKLRSINQGLDRLRRVSHQGYSTEAEFEEPRVIDLWDLAQSANLTDKELEAFREELKHFEAKIEKHNHYQKQLEIAHEKLRHAESVGDGERVSRSREKHALLEGRTKELGYTVKKHLQDLSGRISRARHNEL
decrease of cellular level of intact 125I-Aβ40 (LRP1 inhibition) ([4]; bEnd3, RAP 1 µM pre- and co-incubated, 0.1 nM 125I-Aβ40, 15 min, P<0.001): 67%
decrease of 125I-Aβ40 degradation (LRP1 inhibition) ([4]; bEnd3, RAP 1 µM, 0.1 nM 125I-Aβ40, 15 min, P<0.01): 24%
decrease of cellular level of intact 125I-Aβ40 (LRP1 inhibition) ([5]; hCMEC/D3, RAP 1 µM pre- and co-incubated, 0.1 nM 125I-Aβ40, 12 h, P<0.001): 42%
decrease of 125I-Aβ40 degradation (LRP1 inhibition) ([5]; hCMEC/D3, RAP 1 µM, 0.1 nM 125I-Aβ40, 12 h, P<0.01): 28%
decrease of intact 125I-Aβ40 transport B→A (LRP1 inhibition) ([6]; bEnd3, RAP 1 µM pre- and co-incubated, 0.1 nM 125I-Aβ40, 30 min, P<0.01): 42%
decrease of intact 125I-Aβ40 transport B→A (LRP1 inhibition) ([7]; hCMEC/D3, RAP 1 µM pre- and co-incubated, 0.1 nM 125I-Aβ40, 12 h, P<0.01): 42%

— paper PMC3965363 (Neuropharmacology, 2014)
